Residue numbers refer to the chain shown, from its start.
B1: Teprotumumab reference antibody (antibody, V domains shown)
VH: QVELVESGGGVVQPGRSQRLSCAASGFTFSSYGMHWVRQAPGKGLEWVAIIWFDGSSTYYADSVRGRFTISRDNSKNTLYLQMNSLRAEDTAVYFCARELGRRYFDLWGRGTLVSVSS
VL: EIVLTQSPATLSLSPGERATLSCRASQSVSSYLAWYQQKPGQAPRLLIYDASKRATGIPARFSGSGSGTDFTLTISSLEPEDFAVYYCQQRSKWPPWTFGQGTKVESK
B2: D03-YTE (antibody, V domains shown)
VH: B1 VH with Y32H, I50Y
VL: B1 VL with Y32A, W94Y
B3: A11 antibody (antibody, V domains shown)
VH: B1 VH with I50Y
VL: B1 VL with W94Y
notes: Whole antibody
B4: B02 antibody (antibody, V domains shown)
VH: B1 VH with Y32T, I50Y, G101N
VL: B1 VL with W94Y
notes: Whole antibody
B5: B09 antibody (antibody, V domains shown)
VH: B1 VH with Y32H, W52A, F53G, G55A, S57T
VL: B1 VL with W94Y
notes: Whole antibody
B6: B10 antibody (antibody, V domains shown)
VH: B1 VH with I50T
VL: B1 VL with W94Y
notes: Whole antibody
B7: D03 antibody (antibody, V domains shown)
VH: B1 VH with Y32H, I50Y
VL: B1 VL with Y32A, W94Y
notes: Whole antibody; also called clone D03
B8: D10 antibody (antibody, V domains shown)
VH: B1 VH with W52N
VL: B1 VL with W94Y
B9: E01 antibody (antibody, V domains shown)
VH: B1 VH
VL: B1 VL with W94Y
notes: Whole antibody
B10: H11 antibody (antibody, V domains shown)
VH: B1 VH with I50T, F53H
VL: B1 VL with Y32A, S92G, W94Y
notes: Whole antibody
B11: C10 antibody (antibody, V domains shown)
VH: B1 VH with Y32A, F53A
VL: B1 VL with W94Y
B12: A11 Fab (Fab, V domains shown)
VH: B1 VH with I50Y
VL: B1 VL with W94Y
B13: B02 Fab (Fab, V domains shown)
VH: B1 VH with Y32T, I50Y, G101N
VL: B1 VL with W94Y
B14: B09 Fab (Fab, V domains shown)
VH: B1 VH with Y32H, W52A, F53G, G55A, S57T
VL: B1 VL with W94Y
B15: B10 Fab (Fab, V domains shown)
VH: B1 VH with I50T
VL: B1 VL with W94Y
B16: C10 Fab (Fab, V domains shown)
VH: B1 VH with Y32A, F53A
VL: B1 VL with W94Y
B17: D03 Fab (Fab, V domains shown)
VH: B1 VH with Y32H, I50Y
VL: B1 VL with Y32A, W94Y
notes: also called clone D03
B18: E01 Fab (Fab, V domains shown)
VH: B1 VH
VL: B1 VL with W94Y
B19: F02 Fab (Fab, V domains shown)
VH: B1 VH with Y32H, I50T
VL: B1 VL with Y32T, W94Y
B20: H11 Fab (Fab, V domains shown)
VH: B1 VH with I50T, F53H
VL: B1 VL with Y32A, S92G, W94Y

What follows are binders tested against T1, IGF-1R on NCI-H322 cells (UniProt P08069 31-1367, limits assumed) (assay: cell-based or functional assay).
T1 sequence (P08069 31-1367 limits assumed): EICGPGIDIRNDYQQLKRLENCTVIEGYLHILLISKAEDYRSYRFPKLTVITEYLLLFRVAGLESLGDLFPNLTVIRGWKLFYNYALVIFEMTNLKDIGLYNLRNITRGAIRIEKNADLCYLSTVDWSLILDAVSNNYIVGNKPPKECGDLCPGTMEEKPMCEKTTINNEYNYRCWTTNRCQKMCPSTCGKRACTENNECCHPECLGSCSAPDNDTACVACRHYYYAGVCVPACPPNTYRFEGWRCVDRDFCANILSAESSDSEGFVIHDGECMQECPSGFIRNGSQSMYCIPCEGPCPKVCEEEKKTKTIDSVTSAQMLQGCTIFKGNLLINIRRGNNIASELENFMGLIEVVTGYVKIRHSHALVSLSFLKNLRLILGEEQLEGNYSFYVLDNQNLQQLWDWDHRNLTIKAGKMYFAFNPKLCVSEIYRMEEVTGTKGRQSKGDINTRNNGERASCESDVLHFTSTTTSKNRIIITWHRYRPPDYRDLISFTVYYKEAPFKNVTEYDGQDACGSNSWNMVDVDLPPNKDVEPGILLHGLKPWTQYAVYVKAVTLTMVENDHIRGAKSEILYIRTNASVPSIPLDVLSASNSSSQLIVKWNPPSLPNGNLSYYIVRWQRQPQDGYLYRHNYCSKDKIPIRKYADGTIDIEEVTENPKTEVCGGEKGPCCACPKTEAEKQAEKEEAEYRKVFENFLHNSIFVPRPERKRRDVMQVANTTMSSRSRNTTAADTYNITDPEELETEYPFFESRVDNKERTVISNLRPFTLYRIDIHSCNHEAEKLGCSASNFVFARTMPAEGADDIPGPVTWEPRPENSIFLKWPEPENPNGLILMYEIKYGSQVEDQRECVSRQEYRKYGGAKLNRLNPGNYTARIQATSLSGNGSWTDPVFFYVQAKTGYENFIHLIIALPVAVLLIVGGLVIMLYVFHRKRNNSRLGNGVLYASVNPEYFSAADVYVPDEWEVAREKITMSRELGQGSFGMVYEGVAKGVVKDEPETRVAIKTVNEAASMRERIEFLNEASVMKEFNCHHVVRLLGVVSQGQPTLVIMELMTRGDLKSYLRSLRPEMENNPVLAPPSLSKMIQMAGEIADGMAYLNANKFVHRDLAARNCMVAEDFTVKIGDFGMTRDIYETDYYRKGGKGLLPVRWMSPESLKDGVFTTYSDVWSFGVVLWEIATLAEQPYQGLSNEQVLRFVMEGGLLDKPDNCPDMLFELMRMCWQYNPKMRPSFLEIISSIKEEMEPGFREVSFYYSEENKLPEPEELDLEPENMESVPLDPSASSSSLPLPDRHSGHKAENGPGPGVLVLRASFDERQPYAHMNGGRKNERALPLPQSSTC
B1 was tested, and the “IC50 of inhibition of IGF-1R phosphorylation” value was 0.397 µg/mL. With B2 the “IC50 of inhibition of IGF-1R phosphorylation” value was 0.0205 µg/mL.

Biological target: T1, IGF-1R on NCI-H322 cells
Test: cell-based or functional assay
Remark: another data set of the same source
In the case of B1, the “Inhibition of Phosphorylation IC50” value is reported as 0.0106 µg/mL. With B3 the “Inhibition of Phosphorylation IC50” value was 0.0115 µg/mL. With B4 the “Inhibition of Phosphorylation IC50” value was 0.0135 µg/mL. For B5, the “Inhibition of Phosphorylation IC50” value was 0.0083 µg/mL. In the case of B6, the “Inhibition of Phosphorylation IC50” value is reported as 0.0162 µg/mL. B7 was tested, and the “Inhibition of Phosphorylation IC50” value was 0.0049 µg/mL. With B8 the “Inhibition of Phosphorylation IC50” value was 0.0067 µg/mL. With B9 the “Inhibition of Phosphorylation IC50” value was 0.0064 µg/mL. With B10 the “Inhibition of Phosphorylation IC50” value was 0.0211 µg/mL. B11 was tested, and the “Inhibition of Phosphorylation IC50” value was 0.0065 µg/mL.

Each binder was assayed against T2, Human IGF-I R (Glu 31-Asn 932 with a polyhistidine tag at the C-terminus) (human, UniProt P08069 31-932) (assay: BLI (Octet RED96e), His-tagged IGF-1R on Ni-NTA sensors, Fab 0-100 nM, 1:1 global fit).
T2 construct: range 31-932; Bought protein; captured on Ni-NTA biosensors for BLI; also called IGF1R; IGF-1R; not shown: C-terminal polyhistidine tag
T2 sequence (P08069 31-932 limits assumed): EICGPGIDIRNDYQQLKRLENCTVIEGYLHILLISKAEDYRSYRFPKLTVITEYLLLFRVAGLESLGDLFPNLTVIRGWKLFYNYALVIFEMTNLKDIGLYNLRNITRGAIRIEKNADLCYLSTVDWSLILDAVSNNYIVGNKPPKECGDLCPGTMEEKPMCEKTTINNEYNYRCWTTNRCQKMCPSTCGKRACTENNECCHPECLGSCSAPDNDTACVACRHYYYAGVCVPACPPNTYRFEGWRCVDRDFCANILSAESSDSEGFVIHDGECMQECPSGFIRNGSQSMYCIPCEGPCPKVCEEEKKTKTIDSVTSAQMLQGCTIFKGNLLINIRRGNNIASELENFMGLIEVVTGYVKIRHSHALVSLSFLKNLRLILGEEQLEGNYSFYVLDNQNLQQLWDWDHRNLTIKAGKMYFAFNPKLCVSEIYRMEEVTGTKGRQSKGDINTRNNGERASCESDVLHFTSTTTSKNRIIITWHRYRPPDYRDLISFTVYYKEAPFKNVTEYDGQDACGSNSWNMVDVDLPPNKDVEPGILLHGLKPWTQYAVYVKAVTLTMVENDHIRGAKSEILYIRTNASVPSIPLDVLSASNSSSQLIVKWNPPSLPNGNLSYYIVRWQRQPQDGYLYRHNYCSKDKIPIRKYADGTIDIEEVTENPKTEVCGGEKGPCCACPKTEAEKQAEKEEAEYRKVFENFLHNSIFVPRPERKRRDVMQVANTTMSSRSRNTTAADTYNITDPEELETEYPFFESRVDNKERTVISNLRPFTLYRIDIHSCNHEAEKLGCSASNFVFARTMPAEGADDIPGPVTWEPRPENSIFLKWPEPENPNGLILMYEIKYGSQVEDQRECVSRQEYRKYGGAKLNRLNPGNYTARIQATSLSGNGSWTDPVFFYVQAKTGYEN
Excerpt: Human IGF-I R (Glu 31-Asn 932 with a polyhistidine tag at the C-terminus) expressed from human 293 cells (HEK293) was purchased from ACROBiosystems (Newark, DE). Dip and Read Ni-NTA (NTA) Biosensors from Sartorius (Bohemia, NY) pre-immobilized with nickel-charged Tris-NTA, were enabled for kinetic characterization of novel anti-human IGF-I R antibodies. Briefly, antibody variants were digested into purified Fab fragments (to enable 1:1 binding and global fitting). The Fab[…] Fab kit from GENOVIS (Cambridge, MA) was used to generate a monovalent binding Fab domain of each antibody variant, Fab fragments are subsequently separated from Fc using the CaptureSelect™ Fc column. Binding of variant Fabs to NTA-captured human IGF-I R (His-tagged) was monitored by biolayer interferometry (BLI) on an Octet RED96e (Sartorius). NTA biosensors were charged with 10 mM NiCl2, then loaded with His-tagged human IGF-I R at approximately 5 ug/mL to an average loading response of 0.67 nm shift. Variant Fabs were assayed from 0-100 nM in 10X kinetics buffer (1X PBS, 0.1% BSA, 0.02% Tween-20 plus Kathon as a preservative) from Sartorius. Binding kinetics and affinities were determined using the Octet Analysis Studio Software (Sartorius) by applying a 1:1 global fitting to double-referenced subtracted data.
B12 showed a Kd of 849 pM, a koff of 0.00076 s⁻¹ and a kon of 895000 M⁻¹ s⁻¹. Work on B13 yielded a Kd of 1540 pM, a koff of 0.00125 s⁻¹ and a kon of 810000 M⁻¹ s⁻¹. Work on B14 yielded a Kd of 1130 pM, a koff of 0.000799 s⁻¹ and a kon of 705000 M⁻¹ s⁻¹. B15 gave a Kd of 898 pM, a koff of 0.000826 s⁻¹ and a kon of 921000 M⁻¹ s⁻¹. Work on B16 yielded a Kd of 447 pM, a koff of 0.000485 s⁻¹ and a kon of 1.08e+06 M⁻¹ s⁻¹. For B17, the Kd was 407 pM, the koff was 0.000603 s⁻¹ and the kon was 1.48e+06 M⁻¹ s⁻¹. Work on B18 yielded a Kd of 179 pM, a koff of 0.000298 s⁻¹ and a kon of 2.66e+06 M⁻¹ s⁻¹. B19 gave a Kd of 1920 pM, a koff of 0.0023 s⁻¹ and a kon of 1.2e+06 M⁻¹ s⁻¹. B20 was tested, and the Kd was 418 pM, the koff was 0.000744 s⁻¹ and the kon was 1.78e+06 M⁻¹ s⁻¹.

What follows are binders tested against T3, IGF-1R (coated on Maxisorp plates) (UniProt P08069 31-932, limits assumed) (assay: competition ELISA, plate-coated IGF-1R, antibody titrated against 20 ng/mL IGF-1 biotin).
T3 construct: also called the receptor
T3 sequence (P08069 31-932 limits assumed): as above
Description: (§1) Maxisorp plates were coated with 1.5 ug/mL of IGF-1R overnight at 4° C. Plates were washed and blocked with 1% BSA. Subsequently, serially diluted anti-IGF1R antibodies were incubated for 30 min at room temperature followed by an incubation with a final concentration of 20 ng/mL IGF-1 biotin. Plates were washed and streptavidin-horseradish peroxidase was added. After a final wash, 3,3′,5,5′-Tetramethylbenzidine was added for 8 minutes. The reaction was terminated with a HCL based stop solution. Plates were measured for absorbance at 450 nm, and the data was analyzed using Softmax Pro 7.1 software.
Work on B3 yielded an IC50 of 0.351 µg/mL. For B4, the IC50 was 0.386 µg/mL. Binder B5 has an IC50 of 0.337 µg/mL. Binder B6 has an IC50 of 0.395 µg/mL. Work on B7 yielded an IC50 of 0.388 µg/mL. B9 gave an IC50 of 0.388 µg/mL. B10 was tested, and the IC50 was 0.452 µg/mL.

What follows are binders tested against T3, IGF-1R (coated on Maxisorp plates) (assay: competition ELISA, plate-coated IGF-1R, antibody titrated against 200 ng/mL IGF-2 biotin).
Description: as §1, with “of 200” for “of 20”, “ng/mL of IGF-2” for “ng/mL IGF-1”
B3 was tested, and the IC50 was 0.158 µg/mL. Work on B4 yielded an IC50 of 0.115 µg/mL. Binder B5 has an IC50 of 0.153 µg/mL. For B6, the IC50 was 0.176 µg/mL. Binder B7 has an IC50 of 0.161 µg/mL. In the case of B9, the IC50 is reported as 0.141 µg/mL. With B10 the IC50 was 0.157 µg/mL.
